The assay addresses T1, human ICOS (inducible T-cell co-stimulator) (human, UniProt Q9Y6W8 21-199).
T1 construct: also called the ICOS receptor
T1 sequence: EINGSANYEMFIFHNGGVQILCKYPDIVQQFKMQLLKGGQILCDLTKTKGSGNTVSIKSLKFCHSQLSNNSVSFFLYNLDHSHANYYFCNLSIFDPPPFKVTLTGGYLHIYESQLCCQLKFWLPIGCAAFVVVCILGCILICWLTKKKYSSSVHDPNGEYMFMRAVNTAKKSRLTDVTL
The experiment in a line: ICOS receptor occupancy (free ICOS detection) on peripheral CD4 memory T cells in longitudinal PBMC samples, chipcytometry, patient dosed with KY1044 in vivo.

This is an account of results in patent US20240190964A1 (KYMAB, published 2024).

B1: KY1044 (aka STIM003), fully human IgG1 anti-ICOS antibody (antibody, V domains shown)
VH: EVQLVESGGGVVRPGGSLRLSCVASGVTFDDYGMSWVRQAPGKGLEWVSGINWNGGDTDYSDSVKGRFTISRDNAKNSLYLQMNSLRAEDTALYYCARDFYGSGSYYHVPFDYWGQGILVTVSS
VL: EIVLTQSPGTLSLSPGERATLSCRASQSVSRSYLAWYQQKRGQAPRLLIYGASSRATGIPDRFSGDGSGTDFTLSISRLEPEDFAVYYCHQYDMSPFTFGPGTKVDIKR
B1: the binding result is listed as “binds”.
